Laboratory results from patent US8598081B2, “Specific delivery of agrochemicals” (priority 2010, dated 2013).
Residue numbers refer to the chain shown, from its start.

Columns and labels:
[1] = tested on: gum arabic; assay: VHH binding to gum arabic in ELISA; set-up: species or system acacia tree
Experimental: Titration of VHH antibody fragments was performed on ELISA plates (Maxisorp, Nunc) coated with 100 μl per well 100 μg/ml gum arabic in 50 mM carbonate pH 9.6. Plates were coated at 4° C. overnight and coating was continued at room temperature for 1 hour on the next day. Plates were washed three times with PBS/0.05%-TWEEN®-20 and blocked with 5% skimmed milk in PBS for 1 hour. Four-fold serial dilutions of purified VHH antibody fragments were prepared in 1% MPBS/0.05%-TWEEN®-20 in polypropylene 96-well plates. Antibody concentrations ranged from 3 μg/ml to 12 ng/ml. Antibody dilutions were transferred to the gum arabic-coated plates and VHH antibody fragments were allowed to bind for 1 hour at room temperature. Bound VHH were detected with sequential incubations with monoclonal mouse anti-histidine antibodies (Abd Serotec) and rabbit anti-mouse IgG whole molecule antibodies conjugated with alkaline phosphatase (RaM/AP) (Sigma) in 1% MPBS/0.05%-TWEEN®-20. Unbound antibodies were removed by washing three times with PBS/0.05%-TWEEN®-20 after each antibody incubation. The plates were washed an additional two times with PBS and 100 μl pNPP disodium hexahydrate substrate (Sigma) was added to each well. The absorbance at 405 nm was measured and plotted as function of antibody concentration (see Table 1).

[2] = biological target: T1, potato lectin (Solanum tuberosum, UniProt Q9S8M0); assay: VHH binding to potato lectin in ELISA; conditions: Table 2; Blank (no antigen coating); VHH 3 μg/ml
T1 construct: purchased Sigma
T1 sequence (Q9S8M0 whole entry, looked up): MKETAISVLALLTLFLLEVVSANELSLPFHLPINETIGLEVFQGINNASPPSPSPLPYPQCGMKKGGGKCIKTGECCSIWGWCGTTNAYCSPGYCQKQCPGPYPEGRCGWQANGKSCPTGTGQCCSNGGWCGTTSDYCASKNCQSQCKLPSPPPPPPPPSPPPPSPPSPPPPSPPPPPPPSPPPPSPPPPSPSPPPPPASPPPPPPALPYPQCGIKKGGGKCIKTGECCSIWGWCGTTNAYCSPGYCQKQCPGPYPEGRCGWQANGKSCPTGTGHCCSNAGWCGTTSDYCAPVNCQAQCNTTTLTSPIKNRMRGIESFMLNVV
Experimental: ELISA plates (Maxisorp, Nunc) coated with 100 μl per well 100 μg/ml potato lectin (Sigma) in PBS were coated at 4° C. overnight and coating was continued at room temperature for 1 hour on the next day. Plates were washed three times with PBS/0.05%-TWEEN®-20 and blocked with 5% skimmed milk in PBS for 1 hour. VHH (3 μg/ml) were transferred to the potato lectin-coated plates and VHH antibody fragments were allowed to bind for 1 hour at room temperature. Bound VHH were detected with sequential incubations with monoclonal mouse anti-histidine antibodies (Abd Serotec) and rabbit anti-mouse IgG whole molecule antibodies conjugated with alkaline phosphatase (RaM/AP) (Sigma) in 1% MPBS/0.05%-TWEEN®-20. Unbound antibodies were removed by washing three times with PBS/0.05%-TWEEN®-20 after each antibody incubation. The plates were washed an additional two times with PBS and 100 μl pNPP disodium hexahydrate substrate (Sigma) was added to each well and the absorbance at 405 nm was measured (see Table 2).

[3] = biological target: T1, potato lectin; assay: ELISA-like assay, microcapsules with monovalent or bivalent VHH, potato lectin; assay type: binding; set-up: Surface area of bound microcapsules: unit not given here
Source text: (§1) Bivalent VHH constructs were produced in bacteria by cloning two VHH sequences in tandem into the pASF22 vector, creating a fusion of two VHH with a 9 glycine-serine linker (GGGGSGGGS (SEQ ID NO:50)) in between the two VHH. pASF22 is an in-house produced pMES derivative. The tags that were used were C-terminal c-Myc (EQKLISEEDLN (SEQ ID NO:51)) and hexahistidine (HHHHHH (SEQ ID NO:52)). A triple alanine linker (AAA) was placed in between the C-terminal end of the VHH and the c-Myc tag and a glycine-alanine-alanine (GAA) linker was used in between the C-terminal end of the c-Myc tag and the hexahistidine tag. The complete sequence C-terminal of the bivalent VHH that was used: AAA-EQKLISEEDLN-GAA-HHHHHH (SEQ ID NO:53). Fresh overnight cultures were produced by starting from colony streaks and inoculation of 2×TY media supplemented with 2% glucose and 100 μg/ml ampicillin. The overnight cultures were used to inoculate fresh cultures 1:100 in 2×TY media with 0.1% glucose and 100 μg/ml ampicillin. After growing at 37° C. in a shaking incubator for 3 hours, IPTG was added to a 1 mM final concentration and recombinant bivalent VHH were produced during an additional incubation for 4 hours. Cells were spun down and resuspended in 1/50th of the original culture volume of PBS and incubated with head-over-head rotation at 4° C. for 30 minutes. Spheroplasts were spun down by centrifugation at 3,000 g and 4° C. for 20 minutes. Supernatants were transferred to fresh tubes and centrifuged again at 3,000 g and 4° C. for 20 minutes. The supernatant was collected and sodium chloride concentration was adjusted to 500 mM and imidazole concentration to 20 mM. Hexahistidine-tagged bivalent VHH were purified from the extracts using HisTrap FF Crude 5 ml IMAC columns (GE Lifesciences) and HiLoad 16/60 Superdex 75 prep grade gel filtration column (GE Lifesciences) on an AKTAxpress system (GE Lifesciences) following standard procedures.
(§2) Next, it was investigated if binding of microcapsules to surfaces could be improved by using targeting agents comprising multivalent VHH. A series of parallel couplings was performed with equal amounts of monovalent VHH, bivalent VHH, and unrelated VHH. Success of coupling of VHH and multivalent VHH were analyzed as described in Example 4. An ELISA-like assay was performed using high bind half area microplates (Greiner Bio-One) coated with 5 μg/well potato lectin. Control wells included blank wells or wells coated with unrelated antigens. Plates were washed three times with PBS with 0.05%-TWEEN®-20 and blocked with 5% skimmed milk in PBS for 1 to 2 hours. VHH-coupled Uvitex-containing microcapsules were diluted to appropriate densities in 1% skimmed milk in PBS with 0.05%-TWEEN®-20. Five-fold serial dilution series were prepared and allowed to bind to the surface to compare binding of microcapsules coupled with monovalent or bivalent VHH. Microcapsules were added to the antigen-coated or control wells and allowed to bind for 1 hour. Unbound microcapsules were removed by washing five times with PBS with 0.05%-TWEEN®-20. The bottoms of ELISA plate wells were analyzed for bound microcapsules on a macrozoom microscope system (Nikon). Microcapsules were counted using Volocity image analysis software (Perkin Elmer). A DAPI filter was used to visualize Uvitex microcapsules. […] The surface area of microcapsules with coupled bivalent VHH was 15-fold above the surface area of blank microcapsules applied at this microcapsule density while the surface area of microcapsules with monovalent VHH was only six-fold above the surface area of blank microcapsules applied at this microcapsule density. This difference could be explained by an increase in binding strength due to additional avidity of the bivalent VHH compared to monovalent VHH, it could also be that the use of bivalent VHH increases flexibility and spacer length of the coupled targeting agents on microcapsules, or a combination of both.

[4] = ELISA-like assay, microcapsules with monovalent or bivalent VHH, unrelated antigen; assay type: binding; set-up: unit not given beside the values; conditions: Uvitex microcapsules
Source text: as §1, §2

[5] = [VHH] 3 μg/ml (200 nM), gum arabic − (well without gum arabic)
[6] = Table 2, gum arabic coating, VHH 3 μg/ml

B1: VHH5E5: VHH sequence; SEQ ID NO:21 by order of the list (protein, listed as Lama glama)
VHH: QVQLQESGGGLVQPGGSLTLSCTASGFAMRRFGIGWFRQVVGKEREGVSCSNVHDGSTYYANYVKGRFTIVRDDTKNMLYLHMNSLRAEDTGVYSCATTDCEATAWGTYRGYFGQGTQVTVSS
modifications: 5E5
- absorbance at 405 nm [1, 5]: 0.073

B2: VHH 5C4: VHH sequence; SEQ ID NO:18 by order of the list (protein, listed as Lama glama)
VHH: QVQLQESGGGLVQPGGSLRLSCAASGFSLRYFGIGWFRQVAGKEREPVSCSNVRDGNTYYADSVKGRFTISRDNVRNTLYLQMNSLKPEDTAVYSCATTDCEATTWGTYRGYFGQGTQVTVSS
modifications: 5C4
- absorbance at 405 nm [1, 6]: 0.873
- absorbance at 405 nm [1, 5]: 0.082
- absorbance at 405 nm [2]: 0.071

B3: VHH 5G5: VHH sequence; SEQ ID NO:24 by order of the list (protein, listed as Lama glama)
VHH: B2 VHH with V40A, P47G, V48I, T78M, S85N, E89D
modifications: 5G5
- absorbance at 405 nm [1, 6]: 0.751
- absorbance at 405 nm [1, 5]: 0.077
- absorbance at 405 nm [2]: 0.073

B4: VHH 7D2: VHH sequence; SEQ ID NO:28 by order of the list (protein, listed as Lama glama)
VHH: QVQLQESGGGLVQPGRSLKVACAAAGFSLRYYGIGWFRQAPGKEREAVSCTSANDGSTYYRDSVRGRFTISRDDGKNTVYLQMNRLKPEDTAVYYCATTDCDATSWGTWINYYGQGTQVTVSS
modifications: 7D2
- absorbance at 405 nm [1, 6]: 0.274
- absorbance at 405 nm [1, 5]: 0.074
- absorbance at 405 nm [2]: 0.072

B5: VHH7A2: VHH sequence; SEQ ID NO:26 by order of the list (protein, listed as Lama glama)
VHH: QVQLQESGGGSVHPGGSLTLSCLASGFSLSNYGMGWFRQAPGKEREAVSCTSVPNGHIYYAESVKGRFTIVRDNAGNSVYLQMNSLKPEDAANYFCATTDCEAAHWGTWVNYYGQGTQVTVSS
modifications: 7A2
- absorbance at 405 nm [1, 5]: 0.075

B6: Bivalent VHH 3E6: Uvitex-containing microcapsules coupled with bivalent VHH, a fusion of two VHH with a 9 glycine-serine linker (conjugate)
chain: QVQLQESGGGLVQPGGTLSLSCAASGFNVRWYGMGWFRQAPGKEREGVACISALQETTAYADSVKGRFTLSRDNPKNTLSLQMNNLQPEDTGVYYCATTDCDDSSRMTYTSYLGQGTQVTVSSGGGGSGGGSQVQLQESGGGLVQPGGTLSLSCAASGFNVRWYGMGWFRQAPGKEREGVACISALQETTAYADSVKGRFTLSRDNPKNTLSLQMNNLQPEDTGVYYCATTDCDDSSRMTYTSYLGQGTQVTVSSAAAEQKLISEEDLNGAAHHHHHH
- more microcapsules retained in the well compared to microcapsules with monovalent VHH ([3]; application of 25-fold less microcapsules, potato lectin): 160%
- more microcapsules retained in the well compared to microcapsules with monovalent VHH ([3]; highest density of microcapsules applied (fully cover the bottom of the well), potato lectin): 17%
- Surface area of bound microcapsules ([3]; no coating (first series, with potato lectin rows), surface coverage 100%, Uvitex microcapsules): 66.176
- binding to antigen-coated surface when coupled to a microcapsule ([3]; potato lectin 5 μg/well, Uvitex microcapsules): capable of binding specifically
- Surface area of bound microcapsules ([3]; potato lectin, surface coverage 4%, Uvitex microcapsules): 155.759
- Surface area of bound microcapsules ([3]; potato lectin, surface coverage 20%, Uvitex microcapsules): 511.303
- Surface area of bound microcapsules ([3]; potato lectin, surface coverage 100%, Uvitex microcapsules): 490.546
- Surface area of bound microcapsules ([4]; no coating (second series, with unrelated antigen rows), surface coverage 100%): 55.841
- Surface area of bound microcapsules ([4]; unrelated antigen, surface coverage 20%): 22.114
- Surface area of bound microcapsules ([4]; unrelated antigen, surface coverage 100%): 45.677

B7: VHH5F5: VHH sequence; SEQ ID NO:22 by order of the list (protein, listed as Lama glama)
VHH: QVQLQESGGGLVQPGGSLRLSCAASGFPLGLYGIGWFRQAPGKEREAVSCDSVDDGSTNYLDSVKGRFTISRDNAKNMVYLQMNSLKPEDTAVYYCATTDCDAKAWGTWTNYRGQGTQVTVSS
modifications: 5F5
- absorbance at 405 nm [1, 5]: 0.090

B8: VHH7C2: VHH sequence; SEQ ID NO:27 by order of the list (protein, listed as Lama glama)
VHH: QVQLQESGGGLVQPGGSLRLSCAAFGFALANYGIGWFRQAPGKDRERVSCDSVDDGSTHYSNSVQGRFTIIRDNAKNTVFLQMNSLKAEDTAVYYCATTDCDATTWGTWINYRGQGTQVTVSS
modifications: 7C2
- absorbance at 405 nm [1, 5]: 0.077
